Experimental data: patent US20050170334A1

Assays:
[1] = target: CM16 (influenza A virus); assay: ELISA, peptide coated, antibody 10 µg/ml
[2] = target: NM12 (influenza A virus); assay: ELISA, peptide coated, antibody 10 µg/ml
[3] = target: NM11 (influenza A virus); assay: ELISA, peptide coated, antibody 10 µg/ml
[4] = target: CM13 (influenza A virus); assay: ELISA, peptide coated, antibody 10 µg/ml
[5] = target: NM13 (influenza A virus); assay: ELISA, peptide coated, antibody 10 µg/ml
[6] = target: M2 peptide (extracellular 23-amino-acid M2 peptide) (influenza A virus); assay: ELISA, peptide coated, antibody 10 µg/ml
[7] = target: CM17 (influenza A virus); assay: ELISA, peptide coated, antibody 10 µg/ml
[8] = target: NM17 (influenza A virus); assay: ELISA, peptide coated, antibody 10 µg/ml
[9] = target: CM15 (influenza A virus); assay: ELISA, peptide coated, antibody 10 µg/ml
[10] = target: CM14 (influenza A virus); assay: ELISA, peptide coated, antibody 10 µg/ml
[11] = target: CM12 (influenza A virus); assay: ELISA, peptide coated, antibody 10 µg/ml
[12] = target: NM16 (influenza A virus); assay: ELISA, peptide coated, antibody 10 µg/ml
[13] = target: M2 expressed on A/HK/8/68 infected MDCK cells (influenza A virus A/HK/8/68); assay: cell-based ELISA, infected MDCK cells
[14] = target: NM14 (influenza A virus); assay: ELISA, peptide coated, antibody 10 µg/ml
[15] = target: M12 (influenza A virus); assay: ELISA, peptide coated, antibody 10 µg/ml

B1: L66 (antibody, V domains shown)
VH: EVQLVESGGGVVRPGGSLRLSCAASGFTFDDYGMSWVRQAPGKGLEWVSGINWNGGSTGYADSVKGRFTISRDNAKNSLYLQMNSLRAEDTALYYCARDRVTMVRGVIMDYYGMDVWGQGTTVTVSS
VL: QTVVTQEPSLTVSPRGTVTLTCSSSTGAVTSGYYPGWFQLKPGQAPMSLIYSARKKHSWTPARFSGSLLGGKAALTLSGVQPEDEAEYYCLLYYGGAYVFGTGTKVTVLG
B1 gave an ELISA (OD450) [1] of 0.09 OD450, an ELISA (OD450) [2] of 0.12 OD450 and an ELISA (OD450) [3] of 0.09 OD450. For the same binder, the ELISA (OD450) [4] was 0.08 OD450, the ELISA (OD450) [5] was 0.13 OD450 and the ELISA (OD450) [6] was 0.51 OD450. The ELISA (OD450) [7] was 0.12 OD450, the ELISA (OD450) [8] was 0.99 OD450 and the ELISA (OD450) [9] was 0.09 OD450. The ELISA (OD450) [10] was 0.08 OD450, the ELISA (OD450) [11] was 0.08 OD450 and the ELISA (OD450) [12] was 1.04 OD450. For the same binder, the EC50 [13] was 0.229 mg/L.

B2: C40G1 (antibody, V domains shown)
VH: QLQLQESGPGLVKPSETLSLTCTVSGGSISSSFYYCGWIRQPPGKGLEWIGSIYYRGSTYYNPSLKSRVTISVDTSKNQFSLKLSSVTAADTAVYYCARRVTMVRGVKGDYFDYWGQGTLVTVSS
VL: DIQMTQSPSSLSASVGDRVTITCRASQGISSWLAWYQQKPEKVPKSLIYAASSLQSGVPSRFSGSGSGTDFTLTISSLQPEDFATYYCQQYNYYPLTFGGGTKVEIKR
B2 gave an ELISA (OD450) [1] of 0.76 OD450, an ELISA (OD450) [2] of 0.12 OD450 and an ELISA (OD450) [4] of 0.11 OD450. For the same binder, the ELISA (OD450) [5] was 2.41 OD450, the ELISA (OD450) [14] was 2.49 OD450 and the ELISA (OD450) [7] was 2.78 OD450. For the same binder, the ELISA (OD450) [15] was 2.71 OD450, the ELISA (OD450) [9] was 0.11 OD450 and the ELISA (OD450) [10] was 0.1 OD450. The ELISA (OD450) [11] was 0.1 OD450.
